Reference: patent publication US12497460B2, “Anti-MSR1 antibodies and methods of use thereof” (REGENERON PHARMACEUTICALS, INC., priority 2018, dated 2025)
Where two headings read alike, the source gives them in different places.

Columns and labels:
[1] = biological target: T1, RAW264.7 cells (MSR1 positive) (Mus musculus, UniProt P30204); assay: Flow cytometry binding to cell surface-expressed mouse MSR1; format: cell-based; settings: 10 μg/mL antibody
T1 construct: using MSR1 positive RAW264.7 cells (ATCC, Catalog #TIB-71); host or cells: RAW264.7
T1 sequence (P30204 1-458): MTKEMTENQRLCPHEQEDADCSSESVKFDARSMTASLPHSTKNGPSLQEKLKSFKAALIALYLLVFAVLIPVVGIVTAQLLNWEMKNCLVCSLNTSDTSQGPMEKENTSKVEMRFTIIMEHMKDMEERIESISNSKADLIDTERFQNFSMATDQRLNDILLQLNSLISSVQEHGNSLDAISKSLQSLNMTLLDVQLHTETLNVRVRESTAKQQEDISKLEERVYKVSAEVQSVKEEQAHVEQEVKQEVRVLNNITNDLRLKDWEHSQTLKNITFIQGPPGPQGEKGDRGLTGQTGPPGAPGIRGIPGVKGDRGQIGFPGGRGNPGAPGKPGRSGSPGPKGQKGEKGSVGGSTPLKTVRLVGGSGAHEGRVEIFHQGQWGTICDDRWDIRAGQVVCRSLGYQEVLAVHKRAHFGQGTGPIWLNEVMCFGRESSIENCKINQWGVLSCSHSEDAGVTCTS
Method: To block binding to Fc receptors, RAW264.7 cells were incubated for 30 minutes at 4° C. with 500 μg/mL mouse IgG (Jackson ImmunoResearch, Cat #015-000-003) diluted in staining buffer, while B16F10.9 cells remained in staining buffer. Following Fc receptor blocking, 10 μg/mL of anti-MSR1 antibodies or an isotype control antibody were added to the cells and were subsequently incubated for 30 minutes on ice. […] The signal to noise (S/N) was determined by calculating the ratio of the anti-MSR1 antibodies or the control antibodies MFI to the unstained sample MFI (Table 11).

Msr1^hu/hu ApoE^−/− mice = assay: In vivo LPS-induced cytokine production in serum; design: species or system mouse; settings: i.p. dosing 24 hours before LPS challenge; 2 hours post LPS challenge
[2] = tested on: LPS-induced IL-1β release in differentiated THP-1 cells; assay: LPS-mediated IL-1β release assay; format: cell-based, human; settings: for IC50: 100 ng/ml LPS for 5 hours, read-out: IC50, inhibition of LPS-induced IL-1β secretion
Method: To test the anti-inflammatory properties of anti-MSR1 antibody-steroid conjugates in vitro, a lipopolysaccharide (LPS)-mediated IL-1β release assay was performed. For the assay, THP-1 cells were seeded onto 96 well plates at 40,000 cells/well in media containing RPMI supplemented with 10% FBS and pencillin/streptomycinin and differentiated with 200 nM Phorbol Myristate Acetate (PMA) for 3 days. After the 3-day differentiation period, three-fold serial dilutions of antibody drug conjugates, unconjugated antibodies, or free payloads in fresh media were added to the cells at final concentration ranging from 100 nM to 0.01 nM. Media alone served as a blank control. Subsequently at 24, 48, or 72 hours later, cells were treated with 100 ng/ml LPS (InVivoGen, Cat #tlrl-eklps) for 5 hours. The cell media was then collected, and IL-1β levels were measured using a V-PLEX Proinflammatory Panel 1 human kit (Meso Scale Diagnostics, Cat #15049D-2) as per manufacturer's instructions. Subsequently, the plate was read on a Meso Scale Diagnostics instrument.
IC50 values were determined from a four-parameter logistic equation over a 10-point response curve (GraphPad Prism). All IC50 values are expressed in M (molar) concentration. The IC50 values and IL-1β amount at the maximum concentration of antibody-steroid conjugates or controls are shown in Table 22 each of the time point tested.

B1: H1H21227N-N297Q: "modified versions of 21227N (H1H21227N-N297Q and H1H21227N-N297D)"; anti-MSR1 antibody "with a N297Q single point mutation" (antibody, V domains shown)
VH: QVQLVQSGAEVKKPGASVKVSCKVSGYTLTELSIHWVRQVPGKGLEWMGGFDPEEGETIFAQEFRDRVTLTEDTSPDTAYMELSSLKSEDAAVYYCTTPRYCNNGICYDYWGQGTLVTVSS
VL: DIQMTQSPSSLSASVGDRVTITCRASQSISNYLNWYQQKPGKAPKLLIYTASSLQSGVPSRFSGSGSGTDFTLTISSLQTEDFATYYCQQSYSNFPITFGQGTRLEIKR
**Q.** Which results are given for B1?
**A.** RAW264.7 MFI [1]: 12810; RAW264.7 S/N [1]: 5; signal to noise (S/N), MFI over unstained sample MFI [1]: 5

B2: H1H21234N-N297Q-LP13 (conjugate)
VH: QVQLQESGPGLVKPSETLSLTCTVTGGSISRNYWSWIRQPPGKGLEWIGYIYYSGSIDYNPSLKSRVTISVDTSKNQFSLKLSSMTAADTAVYYCARDRWNWKYGMDVWGQGTTVIVSS
VL: EIVLTQSPGTLSLSPGERATLSCRASQTVRNNYLAWYHQKPGQAPRLLIYGASSRATGIPDRFSGSGSGTDFTLTISRLEPEDFTVYYCHQYGNSPWTFGQGTKMEIKR
**Q.** B2 was tested. Which “effect on in vivo LPS-induced cytokine production in serum” value (Msr1^hu/hu ApoE^−/− mice) did it give?
**A.** efficacious in inhibiting in vivo LPS-induced cytokine production in a dose-dependent manner

**Q.** And the IC50 ([2]; 24-hour time point)?
**A.** 6.29 nM

**Q.** And the IC50 ([2]; 48-hour time point)?
**A.** 3.59 nM

**Q.** And the IC50 ([2]; 72-hour time point)?
**A.** 1.7 nM

**Q.** And the “IL1beta released at max concentration tested” value (“IL1beta released” for short) ([2]; 24 hour treatment before LPS)?
**A.** 119.43 pg/mL

**Q.** And the “IL1beta released” value ([2]; 48 hour treatment before LPS)?
**A.** 69.3 pg/mL

**Q.** And the “IL1beta released” value ([2]; 72 hour treatment before LPS)?
**A.** 70.31 pg/mL
